Data taken from patent US20160052996A1.

Key:
[1] = target: BKV VP1 (BK virus (BKV), AS strain) (UniProt P14996); assay: direct ELISA
[2] = target: JCV VP1 VLP (JC virus (JCV), Mad-1 strain) (UniProt P03089); assay: direct ELISA
[3] = target: BKV VP1 VLP (BK virus (BKV), AS strain) (UniProt P14996); assay: direct ELISA
[4] = target: BKV VP1 (BK virus (BKV), AS strain) (UniProt P14996); assay: direct ELISA, plate coated with antigen at 5 µg/ml in carbonate buffer; EC50 by non-linear regression (GraphPad Prism)
[5] = target: BKV VP1 VLP (BK virus (BKV), AS strain) (UniProt P14996); assay: direct ELISA, plate coated with antigen at 5 µg/ml in reassociation buffer (VLP); EC50 by non-linear regression (GraphPad Prism)

BKV VP1 (BK virus (BKV), AS strain), sequence (P14996 whole entry): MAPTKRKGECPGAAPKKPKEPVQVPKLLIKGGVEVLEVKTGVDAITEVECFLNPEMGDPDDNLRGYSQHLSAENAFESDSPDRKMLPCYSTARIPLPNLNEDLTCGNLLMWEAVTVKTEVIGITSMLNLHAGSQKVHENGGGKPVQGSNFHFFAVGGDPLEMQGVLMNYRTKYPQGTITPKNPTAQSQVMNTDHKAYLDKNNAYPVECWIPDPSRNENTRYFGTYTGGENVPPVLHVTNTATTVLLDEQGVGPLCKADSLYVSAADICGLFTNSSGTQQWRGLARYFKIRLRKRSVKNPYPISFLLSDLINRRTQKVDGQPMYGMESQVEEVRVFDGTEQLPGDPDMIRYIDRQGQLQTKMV
BKV VP1 VLP (BK virus (BKV), AS strain), sequence (P14996 whole entry): as above
JCV VP1 VLP (JC virus (JCV), Mad-1 strain), sequence (P03089 whole entry): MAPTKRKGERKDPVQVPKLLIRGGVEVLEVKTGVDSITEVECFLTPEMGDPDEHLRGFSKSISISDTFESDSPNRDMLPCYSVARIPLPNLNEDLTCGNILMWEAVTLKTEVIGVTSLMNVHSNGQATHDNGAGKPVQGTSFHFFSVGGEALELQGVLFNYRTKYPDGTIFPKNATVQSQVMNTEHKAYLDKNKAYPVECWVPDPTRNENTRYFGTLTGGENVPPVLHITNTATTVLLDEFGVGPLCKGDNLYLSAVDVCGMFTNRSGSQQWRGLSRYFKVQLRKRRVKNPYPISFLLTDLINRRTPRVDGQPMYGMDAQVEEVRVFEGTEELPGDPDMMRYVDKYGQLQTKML

Binder | EC50 [1] [nM] | EC50 [2] [nM] | EC50 [3] [nM] | EC50 [4] [nM] | EC50 [5] [nM]
NI-307.1E1 (antibody, V domains shown) VH: EVQLVESGGGLVKPGGSLRLSCAASGFIFSDAWMNWVRQAPGKGLEWVGHIKSRPAGGTTEYAAPVKGRFTISRDDSTDTLYLQMNNLKAEDTAVYYCSTGHYGVYGLGTLVTVSS VL: DIQMTQSPSTLSASVGDRVTITCRASQSIRDYLAWYQQKPGKAPKLLIYDGSILEGGVPSRFSGSVSGTDFTLTISSLQSDDFATYYCQQYTSYSSWTFGQGTKVEIK | 6.05 | 281 | 11 | – | –
NI-307.26E10 (antibody, V domains shown) VH: EVQLVESGGGLVLPGGSLRLSCAVSGFTVRNEYMRWARQAPGRGLEWVSVIYRDGQTHHADTVKGRFDVSKDTSKNTMYLQMHNLRVDDTAIYYCARGHYGPWGQGTLVTVSS VL: DIQMTQSPSTLPASVGDRVTITCRASQSINNWLAWYQQKPGKAPNLLIYDASNLETGVPSRFSGSGSGTEFTLTISSLQPDDFATYYCQQYNSHSHTWTFGQGTKVEIK | 1.35 | – | 0.74 | – | –
NI-307.78C3 (antibody, V domains shown) VH: QVQLQESGPGLVKPSGTLSLTCTVSGGSISGRIWWSWVRQPPGKGLEWIGEIYHSGSTNYSPSLRGRVTISVDTSKQHFSLKMTSVTAADTAMYYCVRGELALGFDSWGQGTLVTVSS VL: QSALTQPPSASGSPGQSVTISCTGTSSDVGGYNSVSWYQQHPRRAPKLMIYEVSKRPSGVPDRFSGSKSGNTASLTVSGLQADDEAHYYCSSYAGSNNLVFGGGTMLTVL | 1.96 | – | 0.939 | – | –
NI-307.57D5 (antibody, V domains shown) VH: EVQLVESGGGLAQPGGSLRLSCAGSGFTLSDFAMSWVRRAPGKGLEWVSSLTPSGRNSFYSDSVKGRFTISRDNWKNTLYLEMNLLRPEDTAVYYCARPGAPKNSDSKYSYVRVDFQHWGQGTLVTVSS VL: NFMLTQPHSVSESPGRTVTISCTRSSGSIANNFVQWYQHRPGSAPTTLIYEDDQRPSGVPDRFSGSVDSFSNSASLTISGLKTEDEADYFCQSYDNHNWVFGGGTTLTVL | 37.5 | – | 104 | – | –
NI-307.24C6 (antibody, V domains shown) VH: QLQLQESGPGLVKPSGTLSLICVVSGSSIRSNIWWWNWVRQSPGKGLEWIGEIYHSGSTNYSPSLKSRVTMSVDNSKNQFSLKMSSVTAADTAVYFCAINTRTSISGVLYDTFDVWGQGTMVTVSS VL: EIVLTQSPATLSLSSGERATLSCRASQSVSGYLAWYQQKPGQAPRLLIYDGSNRATGIPARFSGSGSGTDFTLTISSLEPEDFAVYYCQHRSNWPMYTFGQGTKLEIK | 0.816 | – | 0.396 | – | –
NI-307.43A11 (antibody, V domains shown) VH: QVQLQESGPGLVKPSGTLSLTCAVTGGSISSSNWWSWVRQSPGKGLEWIGEIHHDGNLNYNPLLKSRVSMSLDRSKNQFSLKLTSVTAADTAVYYCARWDFFFDSSYYIRGFDLWGQGTMVTVSS VL: ETTLTQSPGTLSLSPGERVTLSCRASQSVDRNYLAWYQQKPGQSPRLLIYSASRRATGIPDRFSGSGSGTDFTLTISRLEPEDFVVYYCQQYGGSPPITFGQGTRLEIK | 9.7 | – | 10 | – | –
NI-307.25G10 (antibody, V domains shown) VH: EVQLVESGGGLVQPGGSLRLSCVASGIIFKDYDFHWVRQVKEKGLEWVSAIGTAGDPYYAASVKGRFTVSRENGKNSVYLRMNNVGAGDTALYYCTSGNYFDRGSFRPSAFDMWGQGTMVTVSS VL: EIVLTQSPGTLSLSPGERATLSCWASQSVSSNYLAWYQHKPGQAPRLLIFRASRRATDIPERFSAGGSGTDFTLTISRLEAEDSAVYYCQEYGSAPPASITFGQGTRLEIK | 0.514 | – | 0.172 | – | –
NI-307.6A2 (antibody, V domains shown) VH: QVQLQESGPGLVKPSETLSLTCAVSGGSVSSSYWYSWVRQLPGKGLEWIGEIFHTGDTNYNPSLESRVTISIDTSKNQLSLDVTSATAADTAVYYCARDYCTDSGCDSDALDVWGHGTMVTVSS VL: QSALTQPASVSGSPGQSITISCTGTTKDVGNYNLVSWYQQHPGKAPRLVIYEVSERPSGVSNRFSGSKSGNTASLTISGLQAEDEADYHCCSYAGSGTSVFGGGTKVTVL | 1.79 | – | 1.17 | – | –
NI-307.43E8 (antibody, V domains shown) VH: EVQLVESGGDVVQPGRSLRLSCAASGFAFSIYAMNWVRQAPGKGLEWVALISTSGTEHYADSVKGRFTISRDNSKNTLFLQINSLRVEDTAVYYCARDLDSTGYYENNYWGQGTLVTVSS VL: DVVMTQSPLSSPVSLGQPASISCRSSHSLVHSNGDTYLSWLQQRPGQPPRLLIYKISNRFSGVPDRFSGSGAGTDFTLKISRVEAEDVGVYFCMQATSFPRTFGQGTKVEIK | – | – | – | 0.34 | 0.38
NI-307.3G4 (antibody, V domains shown) VH: QVQLVQSGAELKKPGAAVKVSCQASGYNFLSYGINWVRQIPGQGLQWLGWISTYDGTMNYDQKPDNRVTVTTDTSSSTVYLELRGLRSDDTGVYYCVRDRCAGAGCSHSLGYWGQGTLVTVSS VL: DIQMTQSPSALSASVGDRVTISCRASQNINTQLNWYQEKPGKAPELLIYGAFNLQSGAPSTFSGSGSGTDFTLTITSLQPEDFASYYCQQGFHAPYTFGRGTKVDIK | 27.4 | – | 16.4 | – | –
NI-307.18E12 (antibody, V domains shown) VH: QVQLQQWGAGLLKPSETLSLTCAVYGDSFSGFFWAWIRQTPGTGLEWIGEIQHGGSPTYNPSFESRLTISTDASKSQVSLKMTSVTVTDTAIYYCARCIRGKYGSGSLQLWSQGTLVTVSS VL: DIQLTQSPSFLSASVGDRVTITCRASQDINYHLAWYRQKPGKAPDLLIHSAHTLHIGVSSRFSGSGSGTEFTLTIHTLQPEDFATYYCHQPKTFPPTFGGGTKVDIK | – | – | – | 61.5 | 111
NI-307.19F10 (antibody, V domains shown) VH: EVQLVESGGGLVQPGGSVSLSCAASGFTFPVYWMHWVRQAPEKGLMWVSRISPDGTIVDYAGSVKGRFTVSRDNAKNILYLQIQRLTAEDTAVYFCTKDFDVASGFWGQGTLVTVSS VL: QSALTQPPSASGSPGQSVTISCTGSKSDVGTCHFVSWYQQHPGKVPKLVIYEGNKRPSGVPDRFSASKSGNTASLTISGLQPGDEADYYCSTCAGPNNYVFGTGTKVTVL | 2.41 | – | 1.1 | – | –
NI-307.5H3 (antibody, V domains shown) VH: QVQLQESGPGLLKPLGTLSLICDVSGDSISSSNWWSWVRQSPRKGLEWIGEIYHSGRTNYNPSLTNRVTISVDKSKNQFSLNLNSVTAADTGVYYCARWDYYYNNDYYIRGFDIWGQGTMVTVSS VL: EIVLTQSPGILSLSPGERATLSCRASQSVDSNYLAWYQQKPGQAPRLLIYSTSTRAAGVPDRFSGSGSGTDFALTISGLEPEDFAVYYCQQWGGSPPITFGQGTRLEIK | 0.362 | – | 0.288 | – | –
NI-307.24F3 (antibody, V domains shown) VH: QVQLQESGGGVVQPGRSLRLSCAASGFSFNRYGMHWVRQAPGKGLEWLAVISNDGVNTHYADSVKGRFTISRDNSKSTLYLQASSLRVEDTAVYYCAGYYYGSGTSLFFYWGQGTLVTVSS VL: EIVLTQSPDSLAVSLGERATINCKSSQTVLYSSNNQNYLAWYQQKPGQPPKLLLYWASTRESGVPDRFSGSGSGTDFTLTISSLQPEDVAVYYCQQYYTAPYTFGQGTKVEIK | 1.04 | – | 28.8 | – | –
